{"source": "the DeepSol protein solubility set", "data": [{"test": "soluble on expression in E. coli; label from the status in PepcDB or PDB records", "values": [{"sequence": "MGSDKIHHHHHHMSLKQMECVVAVAKLRSFTKAAAKLKVAQPSLSQSIQAVEKQVGVPLFDRSTFPITLTHAGEVYVAKANAIIELYKDLNTQMCDVIGSDKGPLRLGFSQTGYQFIPTALAKFCKRFPCADLRVVQVFSTLKLEKMLSEGDIDIATLVLPLSSPEIDYKIIKENQAFLALPITHPLSQKAIREAQDSPSVSLEELKEERFILPKSTQRSRPIFDEIFRKAGFEPKIFCETETFDIANAIVASGVGACFTLPQFIKEDKQDKVVLFHVDEPLLARTVVLAYRKDKHLSKMACEFLTIARSL", "soluble on expression in E. coli": "not soluble"}, {"sequence": "MVKITNNVHQFGYEPAEFLSKKLTFTDIVHPEDLDRIVKEMVAFLKNDIVYFEQDYRIFTKGGDIRWVYEKTILKTDDTGLPTLAKGYLLDITER", "soluble on expression in E. coli": "not soluble"}, {"sequence": "MGMTPAQEVISYLINAAIGVSSTSSRPFRDAPPGCPDTLLVQCVKWFFRNGDFSNFYEDIKYLVKGKSLAGFVNSHLMVCPELIRIIVENADNKSRRVKFLIKKDEFAICVGRGRLITFPFTKDMEEPACILAEYTELLFSFPHYDIEYSFEGSYGLSRNMDLTETHIMLLSKLTPSMFAEKARPRRVRERNGRLAVRMSRISWNRSGLYYNAIIQFFESLRGTVITQGEQPLCEKSVTYQEMLKHTLAHPGVHQLDSRPNFQWKISMRKTRKND", "soluble on expression in E. coli": "not soluble"}, {"sequence": "MYGKLLICATASINVININHYIVELKQHFDEVNILFSPSSKNFINTDVLKLFCDNLYDEIKDPLLNHINIVENHEYILVLPASANTINKIANGICDNLLTTVCLTGYQKLFIFPNMNIRMWGNPFLQKNIDLLKNNDVKVYSPDMNKSFEISSGRYKNNITMPNIENVLNFVLNNEKRPLD", "soluble on expression in E. coli": "soluble"}, {"sequence": "SMSETFDVELTKNVQGLGITIAGYIGDKKLEPSGIFVKSITKSSAVEHDGRIQIGDQIIAVDGTNLQGFTNQQAVEVLRHTGQTVLLTLMRRGETSV", "soluble on expression in E. coli": "soluble"}, {"sequence": "MRHSSYEHVPNRIIPPHIPIDARRGDFDRRPGPPVPSMRAAILGGSDPYHGFQPVVDTYNGPVVDNSRRRGFDKGPFGEDLTTMGRNEGRQPLLRHPRLDFEHIGGEMEIARSRSASPEIQVISARSVRDDRRRDKPRQRRSSRSRSRDRGDKDHRKPAASRRSDRESTYRERLGSSSGPAAAPDIIRDGMVWANDNYFEFLSFYIEVLNEKLRSSVDRDVKGIREIREVITPATEPEKDRIVLPPNFNRSDRERMLHCDTTITGLPTAIFFGSGYGPREHYAKYSAAKDFFDKCLKIRVMDDELHAAIGEWPRLDRTFKTQFKVNISKSVNAVILLIKRMANEQLPPGFMTMRTLPIDIIDRFKFLLRMVVADVYYQGTESSMAVPKALETGYNTQPYPPNQYPLDTDIRRPSERPSNGPSAEEAARVRDQEIKEQVARELEKRQKVMEQEIRAKILEEERARIQGEAEREKKLELMKAEEQKYQKEKEMKEFEEQQKKAMMTKQVEDDFNVMVEQLEKMFVEVRSKGLNHILDMIYGSATFKTIQLYSSTLTSLSFEQKQKLVQDLRSLLDSVTMGMKVAAVAQMSQAQNPIQGGLFQHQQQQQQPMMSGGGGFVSGVQVVPMQVPMQSYQMPQMQIHHQAFPQPQQLNTTPLLSSSVPMRRDEVRRVTVGDMRLRSLSRSEQRDLRVGNKIIAQDSKTGTWTLATVVKIREDRVTVSVANGTWKKDIDDLYKEDDGSLVY", "soluble on expression in E. coli": "not soluble"}, {"sequence": "NPHMWWLQDADPENNSRQASPSQESINQLVYMGFDTVVAEAALRVFGGNVQLAAQTLAHHGGSLPPDLQF", "soluble on expression in E. coli": "soluble"}, {"sequence": "GMPQHDKSRLVRIDTGPMINPVAGKPSRPIAGDASFRTVTAFEGGQGKVESGVWESTSGSFQSNTTGYIEYCHIIEGEARLVDPDGTVHAVKAGDAFIMPEGYTGRWEVDRHVKKIYFVTHLA", "soluble on expression in E. coli": "soluble"}, {"sequence": "PEHIRQMAQAVEGVTPRALPDLPVACRLSGLEPLTIEKETLFINVGERTNVTGSARFKRLIKEEQYDEALEVARQQVENGAQIIDINMDEGMLDAQACMVRFLNLCASEPEISKVPIMVDSSKWEVIEAGLKCIQGKGIVNSISLKEGKEKFVEQAKLIRRYGAAVIVMAFDEVGQAETRTRKLEICTNAYRILVDEVGFPPEDIIFDPNIFAVATGIDEHNNYAVDFIEAVADIKRDLPHAMISGGVSNVSFSFRGNNYVREAIHAVFLYHCFKNGMDMGIVNAGQLEIYDNVPEKLREAVEDVVLNRRDDATERLLDIAAEYADKGVGKEEDASAL", "soluble on expression in E. coli": "not soluble"}, {"sequence": "KEQILSSEQLARKMMLELGDKKQEHLVAIYMDTQNRIIEQRTIFIGTVRRSVAEPREILHYACKNMATSLIIIHNHPSGSPKPSESDLSFTKKIKRSCDHLGIVCLDHIIVGKNKYYSFREEADIL", "soluble on expression in E. coli": "soluble"}, {"sequence": "MIEFSDEDLQKPVRIVIEKIRPYLLKDGGNIEVLGVKSMKIYVALEGACKTCSSSKITLKNVIERQLKMDIHPNLEVVCLENAKEFDKL", "soluble on expression in E. coli": "not soluble"}, {"sequence": "MSLDKSLLKIVTNETGVATTTVEKVIALLDEGNTVPFIARYRKEVTGGLDEVKIKSIQDKWNYVVNLSERKQEVLRIIEEQGKLTKELENDIKAATQLQRVEDLYRPYKQKRRTRATIAKEKGLEPLALLVWSQEKDIDLQEEAKQYFSEEHELHTTEDVLQGINDIIAEWISDDAKYRDYIRDITFKRGLIQSEVKKQEDDEKGIYEMYYSYSEAVRSLVSHRILALNRGEKEKILKVQIEPPVEQITSYLEKQTIKNNSNEQITNSLKAAVEDSYKRLIQPSIEREIRNELTEKAEAQAIEVFSVNLKNLLLQPPLKGKVVLSVDPAFRTGCKLAVVDETGKVHHIGVIYPTAPKNDVKGAEKVVLQLIEQFSVELIAIGNGTASRETEQFISDVIRNKELDLPYIIVNEAGASVYSASPLAREEFPDLQVEERSAVSIARRVQDPLAELVKIDPKSIGVGQYQHDVSQKELSGSLSFVVETAVNQVGVNVNTASSSLLQYVSGLSKTVANNMVKQRNEEGKFTNRKQLKKIPRLGAKTYEQAIGFLRIPDGDTILDRTPIHPESYDQTKNLLQMLGYTENDIGSEKLQQDLNNIDKKATAEKLEIGLPTLEDIMEALGKPGRDPRDDFPQPLLKKNVMNMEDLKSGMELQGTVRNVVDFGVFVDIGVKQDGLVHISKMSKQFVKHPMDIASVGDVVTVWVDQVDVQKGRIALTMVGNDEGHHHHHH", "soluble on expression in E. coli": "soluble"}, {"sequence": "MGSDKIHHHHHHMEKLFTYKEFVDMMQKYGIRHTKRKLRRGENLMENASKFSNVVLLINGYISSYTYESPEKLLSIFEPGIFLRYSILEDQPEFVTNIALSDNCEVYEYKKEDIEYALTLFPENFGFQYFFLKRIGRHLYYRALLNGKEHKEKLYYAMKYLGELIGKTDENGNVSLPPEVTLKVLIEYSTLSKAAFYRQRIRLLEQEILKPHENTFIVQKKVASHYENQLTSI", "soluble on expression in E. coli": "not soluble"}, {"sequence": "MEQQKKTTIVLFSGDYDKAMAAYIIANGAAAYDQEVTIFHTFWGLNALRKDEYVNVKKTFIEKVFGRMMPRGADKMGLSKMNFAGMGPKMIKGIMKKHNTMPLPDLIDLAKEQGIKLVACQMTVDLLGLKEEEIMEGVEFAGVGAYLADASDGNVNLFI", "soluble on expression in E. coli": "not soluble"}, {"sequence": "MGSDKIHHHHHHMLGMPTVLGVVLRMGRELWWCSLRPVSMLKEYAYCPRVAYYMEVLRPSYRPTEPMNLSREIYSVDHVRGILRSSGFRIVKEEWAVPLRSKRLGLQGVADGVVVEGSLGIIVVEAKLSVRSNRWLHTRGRHVIFQAAAYALALEETRGYSVDYLAIVSLEDSKTYVVKMSPSLRRDVIRLADDMNKTLDDGLEPPPKPGRKCVACRFRRVCQPWVAERGSER", "soluble on expression in E. coli": "not soluble"}, {"sequence": "MSHSIEQLSINTIRTLSIDAIEKANSGHPGMPMGAAPMAYTLWTQFMKHNPNNPTWFNRDRFVLSAGHGSMLLYSLLHLSGYDVTMDDLKNFRQWGSKTPGHPEYGHTAGVDATTGPLGQGIATAVGMAMAERHLAAKYNRDAYNIVDHYTYAICGDGDLMEGVSAEASSLAAHLQLGRLVVLYDSNDISLDGDLNRSFSESVEDRYKAYGWQVIRVEDGNDIEAIAKAIEEAKADEKRPTLIEVRTTIGFGSPNKSGKSASHGSPLGVEETKLTKEAYAWTAEQDFHVAEEVYENFRKTVQDVGETAQAEWNTMLGEYAQAYPELANELQAAMNGLLPEGWEQNLPTYELGSKAATRNSSGAVINAIAESVPSFFGGSADLAGSNKTYMNNEKDFTRDDYSGKNIWYGVREFAMGAAMNGIALHGGLKTYGGTFFVFSDYLRPAIRLAALMQLPVTYVFTHDSIAVGEDGPTHEPIEQLAALRAMPNVSVIRPADGNESVAAWRLALESTNKPTALVLTRQDLPTLEGAKDDTYEKVAKGAYVVSASKKETADVILLATGSEVSLAVEAQKALAVDGVDASVVSMPSMDRFEAQTAEYKESVLPKAVTKRFAIEMGATFGWHRYVGLEGDVLGIDTFGASAPGEKIMEEYGFTVENVVRKVKEML", "soluble on expression in E. coli": "not soluble"}, {"sequence": "MQLKVPEHQVAGHIAKDGKPGPLVDDKGRFFKPLQGDSRGEIEVKFYESFSSNTEVPEHIHRYFPVYHGTQAVEGSDGAAMMVLENLLAEYTKPSVMDVKMGSRTWYPDASEEYIQKCLKKDTGTTTVSSGFRISGFEVYDHKESSFWKPERKLLRGLDVDGARLTLRKFVSSNSLSDTGSKPDSAFASSVYGGSHGILTQLLELKTWFENQTLYHFNSCSILMVYENESILKGNDDDARPQVKLVDFAHVLDGNGVIDHNFLGGLCSFINFIREILQSPDESADS", "soluble on expression in E. coli": "soluble"}, {"sequence": "MSLQADFNRPVLAVDTGTSRLSLALRADGETRLFHQEVGSRQSELILPEIRTLFRDAGITAADLGAVVYAQGPGAFTGLRIGIGVAQGLATPFDTPLIGVPSLDAAASLPPPQSCILAATDARMGEVFYAWFDTLNCHRLSDYQVGRAADIRLPEGCAFSDGIGSAFALEEAPPFSGRPDMPTAADFLALAAKGGYPAVHAAHAGLLYVRNKIALTAKEQAERRAEGHHHHHH", "soluble on expression in E. coli": "soluble"}, {"sequence": "MGSDKIHHHHHHMVKVVKFGGSSLASAEQFTKVGDIIRSDESRKYVVPSAPGKRNSKDTKVTDMLYACYDLAENDQDFKVMLRKIKDRYDSIINGLHLKLALDEEFKIIAENFKAKAGADYAASRGEYLNGIIMANYLGYEFIDSATVIFFDENGNFDAEKTDKVLSKKLEQTEKAVIPGFYGAGPDGKVVTFSRGGSDITGSIVSKACHASMYENWTDVSGCLVADPRIIDNPQPIKVVTYRELRELSYMGASVLHEDAVFPVRKAGIPINIRNTNDPEAPGTLIVESTCQKPDYTITGIAGKKGFVAVNIDKDKMNSEVGFCRKALQAFEENGISIEHMPSGIDTMTVFVHQAEFEGKEQQVISSIRRLAHPDIIDLESDLALIAVVGRGMKSNRGTAGRIFSALAHANINVRMIDQGSSELNIIIGVSNDDFDKAIKAIYDIFVVTQL", "soluble on expression in E. coli": "not soluble"}, {"sequence": "MTLDESCKILNIEESKGDLNMDKINNRFNYLFEVNDKEKGGSFYLQSKVYRAAERLKWELAQREK", "soluble on expression in E. coli": "soluble"}, {"sequence": "MAHHHHHHMWEETYVRACANLGVQPRNEVLAAVGGTAQLCGNTFANFENRLTDEELAALCETCRQISLVAVVRLPYNNITCRGATALAKAMKEGFSTLQYLDLSYNSINEEGANAIAAAATNYEMLSTLLLNGNPIGGGSGPCLKTLLESENTQLVTLDLEQTDQGLKSLVHIARGLVHNTTLTTLNLGRPLMTNPMDVSYVVEHLSLALKENRTLRFLGLSHFNMADCDLALLLSTLRDSAVTTLSLKGNKLSQASGEPLAQLLAHRPDFLSLDVTANRLRDVGALAIAAVIANHPGLRELQIGFNTIGGVGISALAQSLAANASITTLKLWGNDLTDESVRDLYAIRGRFESMEVTDFSFYVVDGCPMVARE", "soluble on expression in E. coli": "not soluble"}]}]}
